The values below come from US20230312755A1 (ANGITIA, published 2023).

In assay [1] the target is T1, human DKK1 (human, UniProt O94907 32-266).
T1 sequence (looked up): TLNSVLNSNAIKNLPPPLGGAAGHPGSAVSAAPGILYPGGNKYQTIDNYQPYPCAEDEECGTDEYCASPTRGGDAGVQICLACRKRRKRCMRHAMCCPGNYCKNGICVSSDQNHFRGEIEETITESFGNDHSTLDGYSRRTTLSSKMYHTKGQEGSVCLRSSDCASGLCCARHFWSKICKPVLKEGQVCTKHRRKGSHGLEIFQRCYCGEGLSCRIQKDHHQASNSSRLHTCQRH
Briefly: cell-based or functional assay.

In assay [2] the target is T2, human Sclerostin (human, UniProt Q9BQB4 24-213).
T2 sequence: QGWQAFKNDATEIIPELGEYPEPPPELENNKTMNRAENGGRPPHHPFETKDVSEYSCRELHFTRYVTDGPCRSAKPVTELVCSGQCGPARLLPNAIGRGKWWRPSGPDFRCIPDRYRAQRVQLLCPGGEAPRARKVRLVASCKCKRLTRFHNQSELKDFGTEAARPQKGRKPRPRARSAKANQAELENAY
In words: cell-based or functional assay.

For assay [3], the target named is T2, human Sclerostin. In words: BLI (Gator), antibody on anti-hFc biosensor, antigen as analyte; koff at LOD, KD estimated. Here is the method:
(§1) Binding kinetics and affinities of anti-Sclerostin×anti-DKK1 and anti-Sclerostin×anti-RANKL bispecific antibodies were measured with Gator (Probe Life) bio-layer interferometry (BLI). Antibodies were immobilized on an anti-hFc biosensor, using a 5 μg/ml solution. Serial dilutions of sclerostin (from 1 μg/ml), DKK1 (from 2 μg/ml), or RANKL (from 4 μg/ml) by two folds in kinetics buffer (PBS, pH 7.4, 0.05% Tween-20, 0.2% BSA) were used as the analytes. Affinity (KD) and kinetic parameters (Kₒₙ and Koff) were calculated from a global fit (1:1) of the data using the Gator software.

In assay [4] the target is T1, human DKK1. In words: BLI (Gator), antibody on anti-hFc biosensor, antigen as analyte, 1:1 global fit. Here is the method: as §1
For assay [5], the target named is T2, human Sclerostin. The assay is described as above. Here is the method: as §1
Assay [6] deals with T3, cynomolgus monkey Sclerostin (cynomolgus monkey, UniProt Q9BG78 24-213 (Chlorocebus aethiops entry)).
T3 chain: T2 sequence with E26D, P70Q, E129A, T161P, S178G
In words: BLI (Gator), antibody on anti-hFc biosensor, Sclerostin as analyte, 1:1 global fit. Here is the method: (§2) The binding affinity of humanized anti-Sclerostin antibodies to human and cynomolgus monkey Sclerostin were determined with bio-layer interferometry using a Gator instrument (Probe Life). Antibodies were immobilized on an anti-hFc biosensor, using a […]. Serial dilutions of human Sclerostin and cynomolgus monkey Sclerostin from 4 μg/ml by two folds in kinetics buffer (PBS, pH 7.4, 0.05% Tween-20, 0.2% BSA, 10 μM biotin) were used as the analytes. Affinity (KD) and kinetic parameters (Kₒₙ and Koff) were calculated from a global fit (1:1) of the data using the Gator software.

In assay [7] the target is T2, human Sclerostin. Briefly: cell-based or functional assay. The source holds these as a separate data set.
Assay [8] has as its target T2, human Sclerostin. In words: BLI (Gator), antibody on anti-hFc biosensor, Sclerostin as analyte, 1:1 global fit. Here is the method: as §2
The target in assay [9] is T4, His-tagged human Sclerostin (NCBI reference No. NP_079513.1) (human, UniProt Q9BQB4 24-213).
T4 construct: also called mouse His-tagged human Sclerostin; not shown: His tag
T4 sequence: T2 sequence
In words: ELISA, plate coated with His-tagged human Sclerostin. Here is the method:
The ability of antibodies to specifically bind Sclerostin was determined by an ELISA capture assay. Plates were coated, in a 96-well half-area, with 100 μl/well of mouse His-tagged human Sclerostin (NCBI reference No. is NP_079513.1) [[…]], in coating buffer (PBS, pH 7.4), and incubated at RT for one hour, or 4° C. overnight. The plates were washed once with 100 μl/well of washing solution (PBS containing 0.2% Tween20, BIO-RAD). Plates were then incubated in blocking solution (PBS containing 1% BSA, 1% goat serum and 0.5% Tween20; 100 μl/well) for one hour at room temperature (RT). Anti-Sclerostin antibodies at various concentrations (1000, 333.3, 111.1, 37.0, 12.3, 4.1, 1.4, 0.5, 0.15, 0.05 ng/ml), a positive control antibody Romosozumab or non-Sclerostin related IgG (human or rat IgG, negative control), were then added to each well in 20 μl/well of blocking solution, and plates were incubated at RT for one hour. NeutrAvidin HRP (Pierce, Catalog #31001) diluted in blocking solution (1:50,000 dilution) was added at to each well ([…]), and the plates were incubated at RT for one hour prior to three washes with […] of washing solution. SuperSignal ELISA Femto (ThermoFisher Scientific, Catalog #37074) working solution was added to the plates ([…]), and the signal was read using a luminometer at 425 nm.
For orientation: An ELISA detects its analyte on a solid surface through an enzyme-linked reagent.

Positions count from the first letter of the chain named.

B1: BAP0037 (bispecific antibody, human IgG4 S228P, kappa)
heavy: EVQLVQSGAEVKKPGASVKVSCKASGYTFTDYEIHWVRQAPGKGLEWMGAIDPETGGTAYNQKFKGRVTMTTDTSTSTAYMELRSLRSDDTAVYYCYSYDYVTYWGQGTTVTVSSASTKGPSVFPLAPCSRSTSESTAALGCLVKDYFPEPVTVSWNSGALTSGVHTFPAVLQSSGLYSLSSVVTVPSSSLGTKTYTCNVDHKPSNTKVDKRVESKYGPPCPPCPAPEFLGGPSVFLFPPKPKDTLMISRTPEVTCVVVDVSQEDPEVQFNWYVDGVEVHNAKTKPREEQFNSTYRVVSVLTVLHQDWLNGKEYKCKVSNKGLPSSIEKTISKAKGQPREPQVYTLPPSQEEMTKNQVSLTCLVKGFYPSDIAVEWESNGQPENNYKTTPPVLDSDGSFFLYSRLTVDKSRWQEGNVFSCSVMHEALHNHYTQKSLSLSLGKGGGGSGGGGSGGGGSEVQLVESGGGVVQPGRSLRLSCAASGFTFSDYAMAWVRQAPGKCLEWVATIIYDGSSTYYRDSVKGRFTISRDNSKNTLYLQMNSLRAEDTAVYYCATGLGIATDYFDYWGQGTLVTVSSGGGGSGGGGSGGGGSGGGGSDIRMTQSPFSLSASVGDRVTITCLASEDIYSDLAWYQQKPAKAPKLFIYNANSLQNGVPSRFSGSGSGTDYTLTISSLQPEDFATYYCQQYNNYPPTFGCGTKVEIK
light: DIQMTQSPSSLSASVGDRVTITCRSSQSLLYSDGRTYLNWYQQKPGKSPKRLIYLVSKLDSGVPDRFSGSGSGTDFTLTISSLQPEDFATYYCWQGTHLPHTFGGGTKVEIKRTVAAPSVFIFPPSDEQLKSGTASVVCLLNNFYPREAKVQWKVDNALQSGNSQESVTEQDSKDSTYSLSSTLTLSKADYEKHKVYACEVTHQGLSSPVTKSFNRGEC
notes: Anti-DKK1 scFv (VH-VL) fused to the C-terminus of the heavy chains of the anti-Sclerostin full length antibody (hAb-2)
As to B1, in the assay with human DKK1 [1], the “EC50, DKK1 neutralization activity in HEK293/TCF/LEF/Wnt1 reporter gene assay” value stood at 24.1 nM. Moreover, the “EC50, Sclerostin neutralization activity in HEK293/TCF/LEF/Wnt1 reporter gene assay” value in the assay with human Sclerostin [2] was found to be 23.6 nM. The results for the Kd with human Sclerostin [3] and with human DKK1 [4] were around 0.01 nM and 1.01 nM, respectively. In the assay with human DKK1 [4], this molecule yielded a koff of 0.000301 s⁻¹. In addition, the kon with human DKK1 [4] was 297000 M⁻¹ s⁻¹; with human Sclerostin [5], 1.88e+06 M⁻¹ s⁻¹.

B2: Romosozumab (antibody, V domains shown)
VH: EVQLVQSGAEVKKPGASVKVSCKASGYTFTDYNMHWVRQAPGQGLEWMGEINPNSGGAGYNQKFKGRVTMTTDTSTSTAYMELRSLRSDDTAVYYCARLGYDDIYDDWYFDVWGQGTTVTVSS
VL: DIQMTQSPSSLSASVGDRVTITCRASQDISNYLNWYQQKPGKAPKLLIYYTSRLLSGVPSRFSGSGSGTDFTLTISSLQPEDFATYYCQQGDTLPYTFGGGTKVEIK
In [6], B2 returned a Kd of 0.35 nM, a koff of 0.000239 s⁻¹ and a kon of 755000 M⁻¹ s⁻¹.

B3: hAb-1 (antibody, V domains shown)
VH: EVQLVQSGAEVKKPGASVKVSCKASGYTFTDYEIHWVRQAPGKGLEWMGAIDPETGGTAYNQKFKGRVTMTTDTSTSTAYMELRSLRSDDTAVYYCYSYDYVTYWGQGTTVTVSS
VL: DVVMTQSPLSLSVSPGERASLSCKSSQSLLYSDGRTYLNWYLQKPGQSPQRLIYLVSKLDSGVPDRFSGSGSGTDFTLKISRVQSEDVGVYYCWQGTHLPHTFGGGTKVEIK
notes: Humanized 93B1B7; also called humanized anti-Sclerostin antibody hAb-1
Regarding B3, in the assay with human Sclerostin [7], the “EC50, Sclerostin-neutralisation activity in HEK293/TCF/LEF/Wnt1 cells (luciferase reporter)” value amounted to 13.9 nM. In [6], the Kd was determined as 0.18 nM, the koff worked out at 0.000229 s⁻¹ and the kon worked out at 1.28e+06 M⁻¹ s⁻¹. Also, in the assay with human Sclerostin [8], the Kd is 0.41 nM, the koff was 0.0003 s⁻¹ and the kon was determined as 730000 M⁻¹ s⁻¹.

B4: hAb-3 (antibody, V domains shown)
VH: B3 VH
VL: DIQMTQSPSSLSASVGDRVTITCRSSQSLLYSDSRTYLNWLQQKPGKSPKRLIYLVSKLDSGVPDRFSGSGSGTDFTLTISSLQPEDFATYYCWQGTHLPHTFGGGTKVEIK
For B4, in the assay with human Sclerostin [7], the “EC50, Sclerostin-neutralisation activity in HEK293/TCF/LEF/Wnt1 cells (luciferase reporter)” value stood at 15.1 nM.

B5: 65B12C9 (antibody, V domains shown)
VH: QVQLQQPGAELVKPGASVKLSCKASGYTFTSYWMHWVKQRPGQGLEWIGMIHPNSGSSNYNEKFKSKATLTVDKSSSTAYMQLSSLTSEDSAVYYCANDYDDEGFAYWGQGTLVTVSA
VL: SIVMTQTPKFLLVSAGDRVTITCKASQSVSNDVAWYQQKPGQSPKLLIYYASNRCTGVPDRFTGSGYGTDFTFTISTVQAEDLAVYFCQQDYSSPWTFGGGTKLEIK
notes: Murine monoclonal antibody from a hybridoma
Turning to B5, the “EC50, Sclerostin-neutralisation activity in HEK293/TCF/LEF/Wnt1 cells (luciferase reporter)” value in the assay with human Sclerostin [7] stood at 152 nM. Besides, a half-maximal response in assay [9] (EC50) required 0.04 nM.

B6: BAP0039 (bispecific antibody, human IgG4 S228P, kappa)
heavy: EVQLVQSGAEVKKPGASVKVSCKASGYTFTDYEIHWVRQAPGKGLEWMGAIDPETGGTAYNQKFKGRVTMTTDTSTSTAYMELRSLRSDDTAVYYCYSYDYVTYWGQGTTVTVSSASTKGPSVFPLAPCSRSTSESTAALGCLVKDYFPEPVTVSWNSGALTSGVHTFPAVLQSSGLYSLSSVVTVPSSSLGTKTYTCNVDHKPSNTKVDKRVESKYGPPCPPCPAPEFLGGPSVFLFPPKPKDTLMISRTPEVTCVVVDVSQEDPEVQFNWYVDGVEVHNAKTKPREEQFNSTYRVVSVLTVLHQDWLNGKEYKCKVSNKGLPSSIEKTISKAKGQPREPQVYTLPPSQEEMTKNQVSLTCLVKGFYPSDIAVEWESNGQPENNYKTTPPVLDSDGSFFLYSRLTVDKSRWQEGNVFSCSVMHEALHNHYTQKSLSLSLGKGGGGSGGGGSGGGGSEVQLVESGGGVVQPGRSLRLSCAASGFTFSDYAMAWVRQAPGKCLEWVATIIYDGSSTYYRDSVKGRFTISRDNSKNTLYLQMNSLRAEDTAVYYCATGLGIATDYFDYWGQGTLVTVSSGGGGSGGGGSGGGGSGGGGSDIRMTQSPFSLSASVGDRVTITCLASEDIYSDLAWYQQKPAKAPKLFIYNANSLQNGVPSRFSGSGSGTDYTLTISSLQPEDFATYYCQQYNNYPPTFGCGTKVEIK
light: DVVMTQSPLSLSVSPGERASLSCKSSQSLLYSDGRTYLNWYLQKPGQSPQRLIYLVSKLDSGVPDRFSGSGSGTDFTLKISRVQSEDVGVYYCWQGTHLPHTFGGGTKVEIKRTVAAPSVFIFPPSDEQLKSGTASVVCLLNNFYPREAKVQWKVDNALQSGNSQESVTEQDSKDSTYSLSSTLTLSKADYEKHKVYACEVTHQGLSSPVTKSFNRGEC
notes: Anti-DKK1 scFv (VH-VL) fused to the C-terminus of the heavy chains of the anti-Sclerostin full length antibody (hAb-1)
Consider B6, for which the “EC50, DKK1 neutralization activity in HEK293/TCF/LEF/Wnt1 reporter gene assay” value with human DKK1 [1] is 20.9 nM. For the same molecule, the “EC50, Sclerostin neutralization activity in HEK293/TCF/LEF/Wnt1 reporter gene assay” value in the assay with human Sclerostin [2] stood at 26.7 nM. In the assay with human DKK1 [4], the affinity, expressed as Kd, was 0.14 nM; the koff came out at 4.32e-05 s⁻¹; the kon turned out to be 309000 M⁻¹ s⁻¹. For the same molecule, in the assay with human Sclerostin [5], the Kd is 0.052 nM, the off-rate constant (koff) came to 9.74e-05 s⁻¹ and the kon came out at 1.88e+06 M⁻¹ s⁻¹.

B7: 91F6D10 (antibody, V domains shown)
VH: QVQLQQSGAELVRPGASVTLSCKASGYTFTDYEMHWVKQTPVHGLEWIGAIDPETGGTAYNQKFKAKAILTADRSSSTAYMELRSLTSEDSAVYYCFSYDYVSYWGQGTLVTVSA
VL: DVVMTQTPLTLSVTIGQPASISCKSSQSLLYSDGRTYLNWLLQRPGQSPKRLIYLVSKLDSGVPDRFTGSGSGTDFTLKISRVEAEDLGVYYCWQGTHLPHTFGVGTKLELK
notes: as for B5
As for B7, the “EC50, Sclerostin-neutralisation activity in HEK293/TCF/LEF/Wnt1 cells (luciferase reporter)” value with human Sclerostin [7] was 60.6 nM. The EC50 in [9] turned out to be 0.06 nM.

B8: 51E8D4 (antibody, V domains shown)
VH: B7 VH with Y32F, M34I, V37M, H43P, A66G, I69L, R74K, E82D, Y95F
VL: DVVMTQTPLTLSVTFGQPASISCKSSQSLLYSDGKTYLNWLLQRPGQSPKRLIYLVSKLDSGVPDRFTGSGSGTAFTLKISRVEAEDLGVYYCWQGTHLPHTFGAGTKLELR
notes: as for B5
With B8, the “EC50, Sclerostin-neutralisation activity in HEK293/TCF/LEF/Wnt1 cells (luciferase reporter)” value with human Sclerostin [7] was determined as 63.4 nM. In addition, the EC50 in assay [9] came out at 0.07 nM.

B9: 56E5C10 (antibody, V domains shown)
VH: B7 VH with Y32F, K65T
VL: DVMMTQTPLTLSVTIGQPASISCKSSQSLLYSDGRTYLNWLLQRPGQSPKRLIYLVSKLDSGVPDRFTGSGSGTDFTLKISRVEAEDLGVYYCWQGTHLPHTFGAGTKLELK
notes: as for B5
As for B9, the “EC50, Sclerostin-neutralisation activity in HEK293/TCF/LEF/Wnt1 cells (luciferase reporter)” value in the assay with human Sclerostin [7] is 64.2 nM. Besides, the EC50 in [9] turned out to be 0.09 nM.

B10: 84F2D5 (antibody, V domains shown)
VH: B7 VH with Y32F, M34I, V37L, H43P, A66G, I69L, R74K
VL: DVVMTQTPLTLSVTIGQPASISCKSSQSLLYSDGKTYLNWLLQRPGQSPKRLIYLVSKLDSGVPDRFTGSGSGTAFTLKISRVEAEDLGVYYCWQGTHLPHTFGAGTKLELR
notes: as for B5
Consider B10, for which, in the assay with human Sclerostin [7], the “EC50, Sclerostin-neutralisation activity in HEK293/TCF/LEF/Wnt1 cells (luciferase reporter)” value was 59.4 nM. This molecule also gave an EC50 in [9] of 0.02 nM.

B11: 81B2B6 (antibody, V domains shown)
VH: B7 VH
VL: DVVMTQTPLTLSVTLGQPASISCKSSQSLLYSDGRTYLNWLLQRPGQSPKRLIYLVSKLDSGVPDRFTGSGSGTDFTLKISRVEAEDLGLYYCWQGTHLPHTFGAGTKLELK
notes: as for B5
For B11, the “EC50, Sclerostin-neutralisation activity in HEK293/TCF/LEF/Wnt1 cells (luciferase reporter)” value with human Sclerostin [7] came out at 59.6 nM. In [9], the EC50 turned out to be 0.01 nM.

B12: 97C11D7 (antibody, V domains shown)
VH: B7 VH with T58S, Y60N
VL: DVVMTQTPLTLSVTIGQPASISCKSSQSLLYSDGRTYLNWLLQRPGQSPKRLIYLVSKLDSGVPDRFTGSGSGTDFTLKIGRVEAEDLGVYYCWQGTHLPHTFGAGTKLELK
notes: as for B5
With B12, the “EC50, Sclerostin-neutralisation activity in HEK293/TCF/LEF/Wnt1 cells (luciferase reporter)” value with human Sclerostin [7] is 55.4 nM. The molecule further yielded an EC50 in assay [9] of 0.04 nM.

B13: 94B12D3 (antibody, V domains shown)
VH: B7 VH with M34I, C96S
VL: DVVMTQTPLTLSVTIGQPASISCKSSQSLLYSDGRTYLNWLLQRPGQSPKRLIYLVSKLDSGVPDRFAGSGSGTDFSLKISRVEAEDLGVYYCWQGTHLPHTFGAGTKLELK
notes: as for B5
For the molecule B13, the “EC50, Sclerostin-neutralisation activity in HEK293/TCF/LEF/Wnt1 cells (luciferase reporter)” value with human Sclerostin [7] worked out at 62.8 nM. In assay [9], this molecule showed an EC50 of 0.04 nM.

B14: 71G6G8 (antibody, V domains shown)
VH: B7 VH with V2A, M34I, A66G, M81L, S103T, S114T
VL: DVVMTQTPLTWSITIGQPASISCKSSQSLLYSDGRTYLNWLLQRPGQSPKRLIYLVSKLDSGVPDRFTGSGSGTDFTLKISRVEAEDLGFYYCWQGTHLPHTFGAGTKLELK
notes: Murine anti-Sclerostin monoclonal antibody
As to B14, in the assay with human Sclerostin [7], the “EC50, Sclerostin-neutralisation activity in HEK293/TCF/LEF/Wnt1 cells (luciferase reporter)” value was 67.4 nM. The EC50 in assay [9] amounted to 0.04 nM.

As a reminder, the Kd is the equilibrium constant for the complex coming apart. As usually defined, the koff is a measure of how fast the partners let go of each other. The term kon denotes the rate constant with which the complex forms. Usually EC50 stands for the concentration needed to bring the measured effect to its halfway point.
